Measured values reported in the supplement of paper PMC3353916.
± gives the standard deviation of the averaged measurements.

Test system: Sindbis virus TE/5'2J-GFP
Assay: percent infected (GFP+ in RFP+ ISG-expressing cells); higher = more infection (less antiviral activity)
Experimental: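 Confirmatory testing of 87 ISGs. Triplicate wells of BHK/HA-Zeo (control) or BHK/NZAP-Zeo (ZAP) cells were transduced with lentiviruses co-expressing a human ISG plus TagRFP, then infected 48 h later with SINV TE/5'2J-GFP (moi 5). The % GFP+ cells among RFP+ cells was measured by flow cytometry at 8 h post infection. Fluc lentivirus served as control. Three independent experiments.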

[1] = experiment: confirmatory screen 1, BHK/HA-Zeo (control)
[2] = experiment: confirmatory screen 1, BHK/NZAP-Zeo (ZAP)
[3] = experiment: confirmatory screen 2, BHK/HA-Zeo (control)
[4] = experiment: confirmatory screen 2, BHK/NZAP-Zeo (ZAP)
[5] = experiment: confirmatory screen 3, BHK/HA-Zeo (control)
[6] = experiment: confirmatory screen 3, BHK/NZAP-Zeo (ZAP)
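Note: Interferon-defective BHK-21 derivatives, ZAP line overexpressing the rat ZAP N-terminal zinc finger domain fused to Zeocin resistance, GFP scored within live singlet TagRFP+ cells.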

| Sequence | percent infected [1] | percent infected [2] | percent infected [3] | percent infected [4] | percent infected [5] | percent infected [6] |
| --- | --- | --- | --- | --- | --- | --- |
| MASVIPASNRSMRSDRNTYVGKRFVHVKNPYLDLMDEDILYHLDLGTKTHNLPAMFGDVKFVCVGGSPNRMKAFALFMHKELGFEEAEEDIKDICAGTDRYCMYKTGPVLAISHGMGIPSISIMLHELIKLLHHARCCDVTIIRIGTSGGIGIAPGTVVITDIAVDSFFKPRFEQVILDNIVTRSTELDKELSEELFNCSKEIPNFPTLVGHTMCTYDFYEGQGRLDGALCSFSREKKLDYLKRAFKAGVRNIEMESTVFAAMCGLCGLKAAVVCVTLLDRLDCDQINLPHDVLVEYQQRPQLLISNFIRRRLGLCD [UPP2] | 74.9 ± 4.2% | 43.1 ± 2.3% | 89.79 ± 0.72% | 93.4 ± 1.3% | 83.4 ± 1.3% | 88.3 ± 1.5% |
| MATERSRSAMDSPVPASMFAPEPSSPGAARAAAAAARLHGGFDSDCSEDGEALNGEPELDLTSKLVLVSPTSEQYDSLLRQMWERMDEGCGETIYVIGQGSDGTEYGLSEADMEASYATVKSMAEQIEADVILLRERQEAGGRVRDYLVRKRVGDNDFLEVRVAVVGNVDAGKSTLLGVLTHGELDNGRGFARQKLFRHKHEIESGRTSSVGNDILGFDSEGNVVNKPDSHGGSLEWTKICEKSTKVITFIDLAGHEKYLKTTVFGMTGHLPDFCMLMVGSNAGIVGMTKEHLGLALALNVPVFVVVTKIDMCPANILQETLKLLQRLLKSPGCRKIPVLVQSKDDVIVTASNFSSERMCPIFQISNVTGENLDLLKMFLNLLSPRTSYREEEPAEFQIDDTYSVPGVGTVVSGTTLRGLIKLNDTLLLGPDPLGNFLSIAVKSIHRKRMPVKEVRGGQTASFALKKIKRSSIRKGMVMVSPRLNPQASWEFEAEILVLHHPTTISPRYQAMVHCGSIRQTATILSMDKDCLRTGDKATVHFRFIKTPEYLHIDQRLVFREGRTKAVGTITKLLQTTNNSPMNSKPQQIKMQSTKKGPLTKRDEGGPSGGPAVGAPPPGDEASSVGAGQPAASSNLQPQPKPSSGGRRRGGQRHKVKSQGACVTPASGC [GTPBP1] | 93.61 ± 0.15% | 64.4 ± 7.3% | 97.42 ± 0.24% | 96.28 ± 0.23% | 88.74 ± 0.67% | 90.6 ± 0.93% |
| MAVMEMACPGAPGSAVGQQKELPKAKEKTPPLGKKQSSVYKLEAVEKSPVFCGKWEILNDVITKGTAKEGSEAGPAAISIIAQAECENSQEFSPTFSERIFIAGSKQYSQSESLDQIPNNVAHATEGKMARVCWKGKRRSKARKKRKKKSSKSLAHAGVALAKPLPRTPEQESCTIPVQEDESPLGAPYVRNTPQFTKPLKEPGLGQLCFKQLGEGLRPALPRSELHKLISPLQCLNHVWKLHHPQDGGPLPLPTHPFPYSRLPHPFPFHPLQPWKPHPLESFLGKLACVDSQKPLPDPHLSKLACVDSPKPLPGPHLEPSCLSRGAHEKFSVEEYLVHALQGSVSSGQAHSLTSLAKTWAARGSRSREPSPKTEDNEGVLLTEKLKPVDYEYREEVHWATHQLRLGRGSFGEVHRMEDKQTGFQCAVKKVRLEVFRAEELMACAGLTSPRIVPLYGAVREGPWVNIFMELLEGGSLGQLVKEQGCLPEDRALYYLGQALEGLEYLHSRRILHGDVKADNVLLSSDGSHAALCDFGHAVCLQPDGLGKSLLTGDYIPGTETHMAPEVVLGRSCDAKVDVWSSCCMMLHMLNGCHPWTQFFRGPLCLKIASEPPPVREIPPSCAPLTAQAIQEGLRKEPIHRVSAAELGGKVNRALQQVGGLKSPWRGEYKEPRHPPPNQANYHQTLHAQPRELSPRAPGPRPAEETTGRAPKLQPPLPPEPPEPNKSPPLTLSKEESGMWEPLPLSSLEPAPARNPSSPERKATVPEQELQQLEIELFLNSLSQPFSLEEQEQILSCLSIDSLSLSDDSEKNPSKASQSSRDTLSSGVHSWSSQAEARSSSWNMVLARGRPTDTPSYFNGVKVQIQSLNGEHLHIREFHRVKVGDIATGISSQIPAAAFSLVTKDGQPVRYDMEVPDSGIDLQCTLAPDGSFAWSWRVKHGQLENRP [MAP3K14] | 96.4 ± 1.2% | 76.4 ± 1.8% | 97.1 ± 0.15% | 92.2 ± 0.5% | 86.1 ± 1.7% | 80.9 ± 2.1% |
| MDAPHSKAALDSINELPENILLELFTHVPARQLLLNCRLVCSLWRDLIDLMTLWKRKCLREGFITKDWDQPVADWKIFYFLRSLHRNLLRNPCAEEDMFAWQIDFNGGDRWKVESLPGAHGTDFPDPKVKKYFVTSYEMCLKSQLVDLVAEGYWEELLDTFRPDIVVKDWFAARADCGCTYQLKVQLASADYFVLASFEPPPVTIQQWNNATWTEVSYTFSDYPRGVRYILFQHGGRDTQYWAGWYGPRVTNSSIVVSPKMTRNQASSEAQPGQKHGQEEAAQSPYRAVVQIF [FBXO6] | 95.42 ± 0.3% | 65.4 ± 1.8% | 94.14 ± 0.54% | 94.48 ± 0.2% | 90.9 ± 1.1% | 91.46 ± 0.7% |
| MDENNGLLLLELNPPNPWDLQPRSPEELAFGEVQITYLTHACMDLKLGDKRMVFDPWLIGPAFARGWWLLHEPPSDWLERLCQADLIYISHLHSDHLSYPTLKKLAGRRPDIPIYVGNTERPVFWNLNQSGVQLTNINVVPFGIWQQVDKNLRFMILMDGVHPEMDTCIIVEYKGHKILNIVDCTRPNGGRLPMKVALMMSDFAGGASGFPMTFSGGKFTEEWKAQFIKTERKKLLNYKARLVKNLQPRIYCPFAGYFVESHPSDKYIKETNTKNDPNELNNLIKKNSDVITWTPRPGATLDLGRMLKDRTDSKGIIEPPEGTKIYKDSWDFEPYLEILNAALGDEIFLHSSWIKEYFTWAGFKDYNLVVRMIETDEDFNPFPGGYDYLVDFLDLSFPKERPQREHPYEEIHSRVDVIRHVVKNGLLWDELYIGFQTRLQRDPDIYHHLFWNHFQIKLPLTPPNWKSFLMCCEQNGPVILQFSTERTNEPNRNKFSVENKA [CMAH] | 94.7 ± 1.2% | 75.3 ± 1.9% | 95.1 ± 0.29% | 94.26 ± 0.25% | 93.1 ± 0.62% | 92.979 ± 0.089% |
| MDFKIEHTWDGFPVKHEPVFIRLNPGDRGVMMDISAPFFRDPPAPLGEPGKPFNELWDYEVVEAFFLNDITEQYLEVELCPHGQHLVLLLSGRRNVWKQELPLSFRMSRGETKWEGKAYLPWSYFPPNVTKFNSFAIHGSKDKRSYEALYPVPQHELQQGQKPDFHCLEYFKSFNFNTLLGEEWKQPESDLWLIEKCDI [C4orf33] | 96.1 ± 1.3% | 85.8 ± 1.1% | 96.38 ± 0.37% | 94.84 ± 0.39% | 93.81 ± 0.1% | 93.56 ± 0.3% |
| MDSRVSELFGGCCRPGGGPAVGGTLKARGAGSSSGCGGPKGKKKNGRNRGGKANNPPYLPPEAEDGNIEYKLKLVNPSQYRFEHLVTQMKWRLQEGRGEAVYQIGVEDNGLLVGLAEEEMRASLKTLHRMAEKVGADITVLREREVDYDSDMPRKITEVLVRKVPDNQQFLDLRVAVLGNVDSGKSTLLGVLTQGELDNGRGRARLNLFRHLHEIQSGRTSSISFEILGFNSKGEVVNYSDSRTAEEICESSSKMITFIDLAGHHKYLHTTIFGLTSYCPDCALLLVSANTGIAGTTREHLGLALALKVPFFIVVSKIDLCAKTTVERTVRQLERVLKQPGCHKVPMLVTSEDDAVTAAQQFAQSPNVTPIFTLSSVSGESLDLLKVFLNILPPLTNSKEQEELMQQLTEFQVDEIYTVPEVGTVVGGTLSSGICREGDQLVVGPTDDGCFLELRVCSIQRNRSACRVLRAGQAATLALGDFDRALLRKGMVMVSPEMNPTICSVFEAEIVLLFHATTFRRGFQVTVHVGNVRQTAVVEKIHAKDKLRTGEKAVVRFRFLKHPEYLKVGAKLLFREGVTKGIGHVTDVQAITAGEAQANMGF [GTPBP2] | 91.5 ± 3.9% | 64.4 ± 1.3% | 94.39 ± 0.34% | 94.94 ± 0.23% | 94 ± 1.1% | 93.43 ± 0.41% |
| MEKGPVRAPAEKPRGARCSNGFPERDPPRPGPSRPAEKPPRPEAKSAQPADGWKGERPRSEEDNELNLPNLAAAYSSILSSLGENPQRQGLLKTPWRAASAMQFFTKGYQETISDVLNDAIFDEDHDEMVIVKDIDMFSMCEHHLVPFVGKVHIGYLPNKQVLGLSKLARIVEIYSRRLQVQERLTKQIAVAITEALRPAGVGVVVEATHMCMVMRGVQKMNSKTVTSTMLGVFREDPKTREEFLTLIRS [GCH1] | 95.976 ± 0.021% | 74 ± 2% | 95.09 ± 0.34% | 93.4 ± 1.6% | 92.6 ± 0.98% | 92.19 ± 0.15% |
| MEKLLCFLVLTSLSHAFGQTDMSRKAFVFPKESDTSYVSLKAPLTKPLKAFTVCLHFYTELSSTRGYSIFSYATKRQDNEILIFWSKDIGYSFTVGGSEILFEVPEVTVAPVHICTSWESASGIVEFWVDGKPRVRKSLKKGYTVGAEASIILGQEQDSFGGNFEGSQSLVGDIGNVNMWDFVLSPDEINTIYLGGPFSPNVLNWRALKYEVQGEVFTKPQLWP [CRP] | 94.7 ± 1.9% | 71.6 ± 4% | 95.07 ± 0.27% | 94.33 ± 0.72% | 89.4 ± 1.5% | 92.68 ± 0.15% |
| MELRSYQWEVIMPALEGKNIIIWLPTGAGKTRAAAYVAKRHLETVDGAKVVVLVNRVHLVTQHGEEFRRMLDGRWTVTTLSGDMGPRAGFGHLARCHDLLICTAELLQMALTSPEEEEHVELTVFSLIVVDECHHTHKDTVYNVIMSQYLELKLQRAQPLPQVLGLTASPGTGGASKLDGAINHVLQLCANLDTWCIMSPQNCCPQLQEHSQQPCKQYNLCHRRSQDPFGDLLKKLMDQIHDHLEMPELSRKFGTQMYEQQVVKLSEAAALAGLQEQRVYALHLRRYNDALLIHDTVRAVDALAALQDFYHREHVTKTQILCAERRLLALFDDRKNELAHLATHGPENPKLEMLEKILQRQFSSSNSPRGIIFTRTRQSAHSLLLWLQQQQGLQTVDIRAQLLIGAGNSSQSTHMTQRDQQEVIQKFQDGTLNLLVATSVAEEGLDIPHCNVVVRYGLLTNEISMVQARGRARADQSVYAFVATEGSRELKRELINEALETLMEQAVAAVQKMDQAEYQAKIRDLQQAALTKRAAQAAQRENQRQQFPVEHVQLLCINCMVAVGHGSDLRKVEGTHHVNVNPNFSNYYNVSRDPVVINKVFKDWKPGGVISCRNCGEVWGLQMIYKSVKLPVLKVRSMLLETPQGRIQAKKWSRVPFSVPDFDFLQHCAENLSDLSLD [DHX58] | 95 ± 1.5% | 75.7 ± 2.1% | 95.81 ± 0.69% | 95.7 ± 0.2% | 94.51 ± 0.49% | 94.61 ± 0.18% |
| MEQHFLGCVKRAWDSAEVAPEPQPPPIVSSEDRGPWPLPLYPVLGEYSLDSCDLGLLSSPCWRLPGVYWQNGLSPGVQSTLEPSTAKPTEFSWPGTQKQQEAPVEEVGQAEEPDRLRLQQLPWSSPLHPWDRQQDTEVCDSGCLLERRHPPALQPWRHLPGFSDCLEWILRVGFAAFSVLWACCSRICGAKQP [C5orf39] | 76.7 ± 4.1% | 9.13 ± 2.2% | 93.67 ± 0.59% | 89.88 ± 0.14% | 75.4 ± 1.5% | 50.1 ± 3% |
